According to US20190241669A1 (published 2019):

Assays:
Human BCMA (human) = Human BCMA (human) (UniProt Q02223); assay: SPR, IgG immobilised, huBCMA analyte, 37 C
cynomolgus monkey BCMA = biological target: T1, cynomolgus monkey BCMA (cynomolgus monkey, UniProt A0A2K5UD97 1-53); assay: SPR, IgG on chip, cyBCMA analyte, 37C
T1 construct: Soluble analyte in SPR; construct not described; also called cyBCMA; Cyno BCMA
T1 sequence (A0A2K5UD97 entry or part of it): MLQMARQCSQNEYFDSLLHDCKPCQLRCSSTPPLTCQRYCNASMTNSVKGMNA

Binder	Kd (Human BCMA (human)) [pM]	T½ (Human BCMA (human)) [min]	koff (Human BCMA (human)) [s⁻¹]	kon (Human BCMA (human)) [M⁻¹ s⁻¹]	Kd (cynomolgus monkey BCMA) [pM]	T½ (cynomolgus monkey BCMA) [min]	koff (cynomolgus monkey BCMA) [s⁻¹]	kon (cynomolgus monkey BCMA) [M⁻¹ s⁻¹]
L3.PY/L1.FF/H2.YQ (antibody, V domains shown, IgG) VH: EVQLLESGGGLVQPGGSLRLSCAASGFTFGSYAMTWVRQAPGKGLEWVSAISYQGGNTFYADSVKGRFTISRDNSKNTLYLQMNSLRAEDTAVYYCARVSPIASGMDYWGQGTLVTVSS VL: EIVLTQSPGTLSLSPGERATLSCRASQSVSSFFLAWYQQKPGQAPRLLIYGASSRATGIPDRFSGSGSGTDFTLTISRLEPEDFAVYYCQHYPYPPSFTFGQGTKVEIK	460	7.61	0.00152	3.32e+06	1490	3.55	0.00326	2.19e+06
L3.PY/L1.FF/H3.TAQ (antibody, V domains shown, IgG) VH: EVQLLESGGGLVQPGGSLRLSCAASGFTFGSYAMTWVRQAPGKGLEWVSAISGSGGNTFYADSVKGRFTISRDNSKNTLYLQMNSLRAEDTAVYYCTRVSPIAAQMDYWGQGTLVTVSS VL: EIVLTQSPGTLSLSPGERATLSCRASQSVSSFFLAWYQQKPGQAPRLLIYGASSRATGIPDRFSGSGSGTDFTLTISRLEPEDFAVYYCQHYPYPPSFTFGQGTKVEIK	540	6.12	0.00189	3.52e+06	1620	3.07	0.00376	2.32e+06
L3.PY/L1.PH/H3.AQ (antibody, V domains shown, IgG) VH: EVQLLESGGGLVQPGGSLRLSCAASGFTFGSYAMTWVRQAPGKGLEWVSAISGSGGNTFYADSVKGRFTISRDNSKNTLYLQMNSLRAEDTAVYYCARVSPIAAQMDYWGQGTLVTVSS VL: EIVLTQSPGTLSLSPGERATLSCRASQSVSPHYLAWYQQKPGQAPRLLIYGASSRATGIPDRFSGSGSGTDFTLTISRLEPEDFAVYYCQHYPYPPSFTFGQGTKVEIK	520	7.27	0.00159	3.08e+06	1500	3.39	0.00341	2.28e+06
L3.PY/L1.PH/H2.QR (antibody, V domains shown, IgG) VH: EVQLLESGGGLVQPGGSLRLSCAASGFTFGSYAMTWVRQAPGKGLEWVSAISGSGGNTFYADQRKGRFTISRDNSKNTLYLQMNSLRAEDTAVYYCARVSPIASGMDYWGQGTLVTVSS VL: EIVLTQSPGTLSLSPGERATLSCRASQSVSPHYLAWYQQKPGQAPRLLIYGASSRATGIPDRFSGSGSGTDFTLTISRLEPEDFAVYYCQHYPYPPSFTFGQGTKVEIK	640	4.89	0.00236	3.69e+06	1800	2.65	0.00436	2.42e+06
L3.PY/L1.PH/H2.HA (antibody, V domains shown, IgG) VH: EVQLLESGGGLVQPGGSLRLSCAASGFTFGSYAMTWVRQAPGKGLEWVSAISHAGGNTFYADSVKGRFTISRDNSKNTLYLQMNSLRAEDTAVYYCARVSPIASGMDYWGQGTLVTVSS VL: EIVLTQSPGTLSLSPGERATLSCRASQSVSPHYLAWYQQKPGQAPRLLIYGASSRATGIPDRFSGSGSGTDFTLTISRLEPEDFAVYYCQHYPYPPSFTFGQGTKVEIK	490	9.99	0.00116	2.37e+06	3440	2.09	0.00553	1.61e+06
L3.PY/L1.FF/H3.YA (antibody, V domains shown, IgG) VH: EVQLLESGGGLVQPGGSLRLSCAASGFTFGSYAMTWVRQAPGKGLEWVSAISGSGGNTFYADSVKGRFTISRDNSKNTLYLQMNSLRAEDTAVYYCARVSPIYAGMDYWGQGTLVTVSS VL: EIVLTQSPGTLSLSPGERATLSCRASQSVSSFFLAWYQQKPGQAPRLLIYGASSRATGIPDRFSGSGSGTDFTLTISRLEPEDFAVYYCQHYPYPPSFTFGQGTKVEIK	510	6.41	0.0018	3.5e+06	1690	2.77	0.00416	2.46e+06
L3.PY/L1.FF/H3.AE (antibody, V domains shown, IgG) VH: EVQLLESGGGLVQPGGSLRLSCAASGFTFGSYAMTWVRQAPGKGLEWVSAISGSGGNTFYADSVKGRFTISRDNSKNTLYLQMNSLRAEDTAVYYCARVSPIAAEMDYWGQGTLVTVSS VL: EIVLTQSPGTLSLSPGERATLSCRASQSVSSFFLAWYQQKPGQAPRLLIYGASSRATGIPDRFSGSGSGTDFTLTISRLEPEDFAVYYCQHYPYPPSFTFGQGTKVEIK	690	4.39	0.00263	3.82e+06	1760	2.31	0.00501	2.85e+06
L3.PY/L1.PH/H3.AE (antibody, V domains shown, IgG) VH: EVQLLESGGGLVQPGGSLRLSCAASGFTFGSYAMTWVRQAPGKGLEWVSAISGSGGNTFYADSVKGRFTISRDNSKNTLYLQMNSLRAEDTAVYYCARVSPIAAEMDYWGQGTLVTVSS VL: EIVLTQSPGTLSLSPGERATLSCRASQSVSPHYLAWYQQKPGQAPRLLIYGASSRATGIPDRFSGSGSGTDFTLTISRLEPEDFAVYYCQHYPYPPSFTFGQGTKVEIK	360	8.61	0.00134	3.68e+06	770	5.72	0.00202	2.61e+06
L3.PY/L3.KF/H2.DY (antibody, V domains shown, IgG) VH: EVQLLESGGGLVQPGGSLRLSCAASGFTFGSYAMTWVRQAPGKGLEWVSAIDYSGGNTFYADSVKGRFTISRDNSKNTLYLQMNSLRAEDTAVYYCARVSPIASGMDYWGQGTLVTVSS VL: EIVLTQSPGTLSLSPGERATLSCRASQSVSSSYLAWYQQKPGQAPRLLIYGASSRATGIPDRFSGSGSGTDFTLTISRLEPEDFAVYYCKFYPYPPSFTFGQGTKVEIK	670	6.35	0.00182	2.74e+06	1770	3.14	0.00368	2.08e+06
L3.PY/L1.FF/H3.AQ (antibody, V domains shown, IgG) VH: EVQLLESGGGLVQPGGSLRLSCAASGFTFGSYAMTWVRQAPGKGLEWVSAISGSGGNTFYADSVKGRFTISRDNSKNTLYLQMNSLRAEDTAVYYCARVSPIAAQMDYWGQGTLVTVSS VL: EIVLTQSPGTLSLSPGERATLSCRASQSVSSFFLAWYQQKPGQAPRLLIYGASSRATGIPDRFSGSGSGTDFTLTISRLEPEDFAVYYCQHYPYPPSFTFGQGTKVEIK	460	7.51	0.00154	3.32e+06	1510	3.51	0.00329	2.18e+06
L3.PY/L1.PH/H3.TAQ (antibody, V domains shown, IgG) VH: EVQLLESGGGLVQPGGSLRLSCAASGFTFGSYAMTWVRQAPGKGLEWVSAISGSGGNTFYADSVKGRFTISRDNSKNTLYLQMNSLRAEDTAVYYCTRVSPIAAQMDYWGQGTLVTVSS VL: EIVLTQSPGTLSLSPGERATLSCRASQSVSPHYLAWYQQKPGQAPRLLIYGASSRATGIPDRFSGSGSGTDFTLTISRLEPEDFAVYYCQHYPYPPSFTFGQGTKVEIK	590	5.43	0.00213	3.58e+06	1280	3.61	0.0032	2.51e+06
